In patent publication US20140157444A1:

Columns and labels:
GFP-ERα (human) = GFP-ERα (human) (UniProt P03372); test: cell-based or functional assay
[1] = target: Myc-tagged estrogen receptor beta (UniProt O08537); test: cell-based or functional assay
Myc-tagged estrogen receptor beta, sequence (O08537 whole entry): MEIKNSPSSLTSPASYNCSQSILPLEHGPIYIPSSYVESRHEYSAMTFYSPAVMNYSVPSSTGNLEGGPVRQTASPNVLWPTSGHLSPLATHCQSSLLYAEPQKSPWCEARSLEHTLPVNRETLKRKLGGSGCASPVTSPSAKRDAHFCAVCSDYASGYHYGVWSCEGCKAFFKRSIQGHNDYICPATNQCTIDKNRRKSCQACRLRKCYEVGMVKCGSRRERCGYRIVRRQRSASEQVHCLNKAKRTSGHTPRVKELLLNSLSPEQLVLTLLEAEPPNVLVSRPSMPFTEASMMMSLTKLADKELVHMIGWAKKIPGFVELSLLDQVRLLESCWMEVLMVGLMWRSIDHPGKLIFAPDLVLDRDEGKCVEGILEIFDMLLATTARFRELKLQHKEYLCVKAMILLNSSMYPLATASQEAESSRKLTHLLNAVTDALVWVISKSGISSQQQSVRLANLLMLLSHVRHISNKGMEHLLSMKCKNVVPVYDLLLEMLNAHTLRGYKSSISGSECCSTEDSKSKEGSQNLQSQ

GFP-ERα (human), sequence (P03372 whole entry): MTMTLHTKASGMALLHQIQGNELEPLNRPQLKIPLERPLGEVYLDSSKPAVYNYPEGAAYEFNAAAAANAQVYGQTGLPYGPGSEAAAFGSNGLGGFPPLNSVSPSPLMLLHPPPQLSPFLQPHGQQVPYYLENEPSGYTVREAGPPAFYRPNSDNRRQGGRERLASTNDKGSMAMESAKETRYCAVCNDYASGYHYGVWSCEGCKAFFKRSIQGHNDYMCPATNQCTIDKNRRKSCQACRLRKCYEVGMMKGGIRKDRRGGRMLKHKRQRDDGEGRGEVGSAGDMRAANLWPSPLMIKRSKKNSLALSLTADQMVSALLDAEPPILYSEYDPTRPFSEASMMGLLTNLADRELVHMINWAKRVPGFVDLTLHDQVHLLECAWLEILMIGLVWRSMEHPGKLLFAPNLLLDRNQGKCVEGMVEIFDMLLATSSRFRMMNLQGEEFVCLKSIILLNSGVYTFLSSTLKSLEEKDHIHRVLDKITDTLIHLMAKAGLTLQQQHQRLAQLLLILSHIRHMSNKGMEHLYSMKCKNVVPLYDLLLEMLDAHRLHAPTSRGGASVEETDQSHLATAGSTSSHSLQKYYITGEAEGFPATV

WDR13 (overexpressed in the luciferase assay, construct not stated) (from UniProt Q91V09 1-485)
ERE-driven luciferase activity (ERE-TATA-LUC reporter in HEK 293 cells) (fold reduction) (GFP-ERα (human)): 2 | ERE-driven luciferase activity (ERE-TATA-LUC reporter in HEK 293 cells) (fold reduction) [1]: 2
